Laboratory results from US11814689B2 (priority 2021, dated 2023).

Experiments:
plasmid DNA [1] = type: biochemical
ssRNA = type: biochemical; conditions: 425 nM ssRNA, 200 nM nuclease, cyclic oligoadenylates
ssDNA = type: biochemical; conditions: for ssDNA cleavage activity: 425 nM ssDNA, 200 nM nuclease, cyclic oligoadenylates
[2] = test system: fluorescent ssRNA reporter; type: biochemical
[3] = test system: 2 Kb DNA reporter labelled biotin and digoxigenin; type: biochemical
plasmid DNA [4] = test system: plasmid DNA
[5] = test system: fluorescent dsDNA reporter; type: biochemical
SARS-CoV-2 N gene RNA = type: biochemical; conditions: IVT SARS-CoV-2 N gene fragment spiked in total RNA of negative swab, no RNA capture
SARS-CoV-2 RNA = type: biochemical
cA3 and cA4 = type: biochemical
[6] = test system: library of 46 synthetic RNAs; type: biochemical

B1: TtCan1: Can1 from Thermus thermophilus, NCBI WP_011229147.1, SEQ ID NO. 61 (protein, listed as Thermus thermophilus)
chain: MQAPVYLCLLGNDPAPAYLGLKVVEREAGRVAKAVFYSFPAWNEEYGKKRQAFFRLLSEKGVLYEERPLEKGLEEAEAREVWVNLTGGAKYWAVRFLGHWRRPGARVFLVEGHRALEAPRALFLWPREEERSLEAEALTLEEYARLYLEPLGEAWERVSPPGAFPPGAQAARLPGREGGVFVVHRGLPYWYWVRPHLGGEAKDMSRKALSAFSGEAKRLGGQLCLPVVPYHKAHLRSRHPKERENVFARWRAWAREYGVFLVDPGRPLEEEVASLIKGKASKKALPLPQEGPLLLALVSEQAVPLYAAYLHAGPREVYLLTTPEMESRLRWAEAFFRGKGVRVHRSFLSGPWALREVRDLLAPVVEEALRRGHPVHANLNSGTTAMALGLYLALRDGARAHYLDGDRLLLLDGGEAEVPWEEGRPEDLLALRGYRFEEEYPDARPDPGLLALAEEILRRWDEVQTSWEASPLVRRFLKFWKKRFGQAFPPKRLSRLKGLPLEYAVYSHLNAHLAPKGGQARMGGHLVPLGGNEALAPQSTEVDGVFFHRGALWFVECKPTDEGLRERAPIMAELVRSVGGVEARGLMVARRWRGAPPPASPNLVYMALEGGEGVGVYRFPEELEKALSRNPAPRRG
Question: With B1 as the molecule, how does the “plasmid DNA cleavage with cA4” value (plasmid DNA [1]) read?
Answer: comparable to the background activity

Question: And the “size of plasmid DNA degradation fragments” value (plasmid DNA [1])?
Answer: ~100 bp

Question: And the ssRNA cleavage activity (ssRNA)?
Answer: cA4-dependent single-stranded RNase

Question: And the ssDNA cleavage activity (ssDNA)?
Answer: does not cleave ssDNA

Question: And the “RNA reporter cleavage compared with AaCan2” value [2]?
Answer: requires higher concentrations of cA4 and produces less fluorescent signal

Question: And the “lateral flow result with cA3” value [3]?
Answer: positive result

Question: What about the “lateral flow result with cA4” value [3] of the same molecule?
Answer: negative result

Question: And the “DNA sequence cleavage preference” value (plasmid DNA [4])?
Answer: non-sequence specific

B2: CtNucC: NucC from Clostridium tepidum, NCBI WP_195923598.1, SEQ ID NO. 55 (protein, listed as Clostridium tepidum)
chain: MGQIDIKSLFYSLQTQMCAKLSTNRQHIQHPGIKGDSSELNWIEWLKTYLPKRYSVDKAFIIDCDGNMSDQIDVVIYDQQYSPFVFNQDNAYYIPAESVYAIFEVKQEINKENIIYAGDKTKSVRSLKRTSTAIPHAGGYYAPKPHNKILSGILTLSSVWNPPLGKSFEEAIYSLEDESKLDIGCILAEGSFLADYKNDVLMKSTEEESLIFFFLKLLIELQSLGTTPAIDINCYGRALDSI
Question: What does the source list for B2?
Answer: dsDNase activity among three thermophilic NucC orthologs (plasmid DNA [1]): highest dsDNase activity; size of plasmid DNA digestion fragments (plasmid DNA [1]): 300-400 bp; cA3 sensitivity relative to AaCan2 [5]: 100 fold; cA3 sensitivity relative to TtCan1 [5]: 10 fold; lowest concentration of cA3 detected [5]: 0.5 nM; target RNA concentration detected by TtCsm assay coupled with the nuclease (SARS-CoV-2 N gene RNA): 10^7 copies/μL

B3: AaCan2: Can2 from Archaeoglobi archaeon JdFR-42, JGI 2730024700, SEQ ID NO. 59 (protein)
chain: MSHIHVCLVSDQAIPNLTTALQFNPDTTVLLSTNEMKDKAKRLETVLKNKGLKVKTLKISAYDINDVITVSESLLNDCKGCKVSLNITGGTKIGTLGTFQVFYTASKPIFYVNTKDNEIIKLYPEKEQQKYPIEISISIKDYLAVYGFNVKSYVKDDSYIYKRKKVTDYLANLVIHRPNIIGEINYKLQNFEEKSYPLKINITKNKQVIKLYDILKDSGLVKIRNKSTIEIPDVETAKYLNGIWFEEYVYMMAKSLGADEVKLNVKGVWDTVGKHPPTNEFDILISKGNRLFYISCKTANPDRKIDDTDETIGKEYLYELDSISDSALGLFGKRMLASARAIKNDYVRKRAEILKIDIADGQNIATLKGKLQQWLSK
modifications: Archaeoglobi archaeon
Question: For B3, which “dsDNase activity, activator and metal dependence” value (plasmid DNA [1]) is on record?
Answer: Mn^2+- and cA3-dependent dsDNase

Question: What about the ssRNA cleavage activity (ssRNA) of the same molecule?
Answer: ssRNase when activated with cA4

Question: What about the ssDNA cleavage activity (ssDNA) of the same molecule?
Answer: Reproducible cleavage of ssDNA is also detectable

Question: What about the “cA4 concentration required for robust ssDNA cleavage” value (ssDNA; Mn^2+-specific) of the same molecule?
Answer: 45 nM

Question: What about the “cA4 concentration giving a similar fluorescent signal” value [2] of the same molecule?
Answer: 0.5 nM

Question: And the “cA4 range in which rate of fluorescent signal is proportional to activator” value [2]?
Answer: 1 to 10 nM

Question: And the “fold less cA4 needed than TtCsm6 for similar fluorescent signal” value [2]?
Answer: 20 fold

Question: And the “target RNA concentration detected by TtCsm assay coupled with the nuclease” value (SARS-CoV-2 N gene RNA)?
Answer: 10^5 copies/μL

Question: And the “SARS-CoV-2 RNA concentration detected directly in swabs” value (SARS-CoV-2 RNA; RNA capture with AaCan2 readout, no RNA extraction or pre-amplification)?
Answer: 5×10^4 copies/μL

Question: And the “Ct of unprocessed swab samples detected” value (SARS-CoV-2 RNA; no RNA purification, lysis buffer 0.05% Triton X-100 and 1 mM EGTA, AaCan2 readout)?
Answer: > 21.2

Question: What about the “loss of sensitivity compared to detection using purified RNA” value (SARS-CoV-2 RNA; unprocessed swab vs purified RNA) of the same molecule?
Answer: ~5 fold

Question: And the “ring-nuclease activity on cyclic nucleotide activator” value (cA3 and cA4)?
Answer: binds and preserves the cyclic nucleotide

Question: And the “ssRNA sequence cleavage preference” value [6]?
Answer: ACGACG
